Laboratory results reported in the supplement of paper PMC10567573.

B1: MATN2 (parent)
chain: FSLKTFKRKSEVERAVKRMRHLST

Variants of: B1
Assay: protein stability index of a GFP-peptide fusion (GPS, HEK-293T) (PSI 1-6); higher = more stable
Conditions: c terminus: a fixed tail appended
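Note: lentivirally expressed fusions sorted by FACS into six bins by GFP to DsRed ratio, PSI derived from sequencing read proportions per bin multiplied by bin number.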

Variant	protein stability index
FSLKTRKRKSEVERAVKRMRHLST [F6R]	2.73
FSLKTNKRKSEVERAVKRMRHLST [F6N]	2.38
FSLKTLKRKSEVERAVKRMRHLST [F6L]	2.55
FSLKTQKRKSEVERAVKRMRHLST [F6Q]	2.85
FSLKTTKRKSEVERAVKRMRHLST [F6T]	2.75
FSLKTDKRKSEVERAVKRMRHLST [F6D]	2.43
FSLKTMKRKSEVERAVKRMRHLST [F6M]	2.29
FSLKTPKRKSEVERAVKRMRHLST [F6P]	2.67
FSLKTEKRKSEVERAVKRMRHLST [F6E]	3.27
FSLKTVKRKSEVERAVKRMRHLST [F6V]	2.96
FSLKTIKRKSEVERAVKRMRHLST [F6I]	2.14
FSLKTCKRKSEVERAVKRMRHLST [F6C]	2.28
FSLKTAKRKSEVERAVKRMRHLST [F6A]	2.87
FSLKTKKRKSEVERAVKRMRHLST [F6K]	3.47
FSLKTWKRKSEVERAVKRMRHLST [F6W]	1.16
FSLKTHKRKSEVERAVKRMRHLST [F6H]	2.94
FSLKTYKRKSEVERAVKRMRHLST [F6Y]	3.29
FSLFTFKRKSEVERAVKRMRHLST [K4F]	1.85
FSLATFKRKSEVERAVKRMRHLST [K4A]	1.69
FSLTTFKRKSEVERAVKRMRHLST [K4T]	2.18
FSLLTFKRKSEVERAVKRMRHLST [K4L]	1.78
FSLCTFKRKSEVERAVKRMRHLST [K4C]	1.74
FSLGTFKRKSEVERAVKRMRHLST [K4G]	2.28
FSLDTFKRKSEVERAVKRMRHLST [K4D]	2.05

Variant	protein stability index
FSLETFKRKSEVERAVKRMRHLST [K4E]	1.8
FSLITFKRKSEVERAVKRMRHLST [K4I]	2.21
FSLPTFKRKSEVERAVKRMRHLST [K4P]	2.58
FSLHTFKRKSEVERAVKRMRHLST [K4H]	2.21
FSLMTFKRKSEVERAVKRMRHLST [K4M]	3.59
FSLNTFKRKSEVERAVKRMRHLST [K4N]	2.39
FSLQTFKRKSEVERAVKRMRHLST [K4Q]	2.45
FSLSTFKRKSEVERAVKRMRHLST [K4S]	2.09
FSLRTFKRKSEVERAVKRMRHLST [K4R]	2.38
FMLKTFKRKSEVERAVKRMRHLST [S2M]	2.5
FWLKTFKRKSEVERAVKRMRHLST [S2W]	1.39
FHLKTFKRKSEVERAVKRMRHLST [S2H]	1.99
FTLKTFKRKSEVERAVKRMRHLST [S2T]	1.99
FCLKTFKRKSEVERAVKRMRHLST [S2C]	1.5
FYLKTFKRKSEVERAVKRMRHLST [S2Y]	1.82
FNLKTFKRKSEVERAVKRMRHLST [S2N]	2.84
FQLKTFKRKSEVERAVKRMRHLST [S2Q]	3.07
FVLKTFKRKSEVERAVKRMRHLST [S2V]	3.07
FGLKTFKRKSEVERAVKRMRHLST [S2G]	3.21
FRLKTFKRKSEVERAVKRMRHLST [S2R]	2.36
FDLKTFKRKSEVERAVKRMRHLST [S2D]	2.77
FPLKTFKRKSEVERAVKRMRHLST [S2P]	2.42
FKLKTFKRKSEVERAVKRMRHLST [S2K]	1.95
FALKTFKRKSEVERAVKRMRHLST [S2A]	1.8

Variant	protein stability index
FELKTFKRKSEVERAVKRMRHLST [S2E]	2.51
FLLKTFKRKSEVERAVKRMRHLST [S2L]	1.55
FSLKTFKRKAEVERAVKRMRHLST [S10A]	1.72
FSLKTFKRKHEVERAVKRMRHLST [S10H]	2.77
FSLKTFKRKKEVERAVKRMRHLST [S10K]	2.21
FSLKTFKRKGEVERAVKRMRHLST [S10G]	1.99
FSLKTFKRKIEVERAVKRMRHLST [S10I]	1.49
FSLKTFKRKNEVERAVKRMRHLST [S10N]	3.07
FSLKTFKRKFEVERAVKRMRHLST [S10F]	1.77
FSLKTFKRKEEVERAVKRMRHLST [S10E]	2.42
FSLKTFKRKYEVERAVKRMRHLST [S10Y]	2.3
FSLKTFKRKREVERAVKRMRHLST [S10R]	2.46
FSLKTFKRKMEVERAVKRMRHLST [S10M]	1.91
FSLKTFKRKPEVERAVKRMRHLST [S10P]	2.62
FSLKTFKRKDEVERAVKRMRHLST [S10D]	2.05
FSLKTFKRKTEVERAVKRMRHLST [S10T]	2.73
FSLKTFKRKWEVERAVKRMRHLST [S10W]	2.88
FSLKTFKRKLEVERAVKRMRHLST [S10L]	1.39
FSLKTFKRKVEVERAVKRMRHLST [S10V]	3.04
FSLKTFKRKQEVERAVKRMRHLST [S10Q]	2.26
FSLKFFKRKSEVERAVKRMRHLST [T5F]	2.56
FSLKVFKRKSEVERAVKRMRHLST [T5V]	1.8
FSLKRFKRKSEVERAVKRMRHLST [T5R]	2.48
FSLKSFKRKSEVERAVKRMRHLST [T5S]	2.4

Variant	protein stability index
FSLKPFKRKSEVERAVKRMRHLST [T5P]	2.11
FSLKIFKRKSEVERAVKRMRHLST [T5I]	2.29
FSLKEFKRKSEVERAVKRMRHLST [T5E]	1.47
FSLKGFKRKSEVERAVKRMRHLST [T5G]	2.71
FSLKHFKRKSEVERAVKRMRHLST [T5H]	1.91
FSLKKFKRKSEVERAVKRMRHLST [T5K]	2.48
FSLKYFKRKSEVERAVKRMRHLST [T5Y]	1.89
FSLKLFKRKSEVERAVKRMRHLST [T5L]	1.58
FSLKMFKRKSEVERAVKRMRHLST [T5M]	2.91
FSLKAFKRKSEVERAVKRMRHLST [T5A]	1.94
FSLKQFKRKSEVERAVKRMRHLST [T5Q]	3.18
FSLKDFKRKSEVERAVKRMRHLST [T5D]	2.75
FSLKTFKRTSEVERAVKRMRHLST [K9T]	2.09
FSLKTFKRPSEVERAVKRMRHLST [K9P]	1.84
FSLKTFKRSSEVERAVKRMRHLST [K9S]	2.58
FSLKTFKRESEVERAVKRMRHLST [K9E]	1.62
FSLKTFKRASEVERAVKRMRHLST [K9A]	1.78
FSLKTFKRWSEVERAVKRMRHLST [K9W]	3.18
FSLKTFKRNSEVERAVKRMRHLST [K9N]	1.65
FSLKTFKRISEVERAVKRMRHLST [K9I]	1.91
FSLKTFKRDSEVERAVKRMRHLST [K9D]	2.46
FSLKTFKRFSEVERAVKRMRHLST [K9F]	2.25
FSLKTFKRQSEVERAVKRMRHLST [K9Q]	2.52
FSLKTFKRYSEVERAVKRMRHLST [K9Y]	2.12

Variant	protein stability index
FSLKTFKRGSEVERAVKRMRHLST [K9G]	2.46
FSLKTFKRMSEVERAVKRMRHLST [K9M]	2.98
FSLKTFKRVSEVERAVKRMRHLST [K9V]	1.25
FSLKTFKRCSEVERAVKRMRHLST [K9C]	2.91
FSLKTFKRRSEVERAVKRMRHLST [K9R]	1.84
FSLKTFKVKSEVERAVKRMRHLST [R8V]	2.15
FSLKTFKFKSEVERAVKRMRHLST [R8F]	1.43
FSLKTFKHKSEVERAVKRMRHLST [R8H]	3.3
FSLKTFKQKSEVERAVKRMRHLST [R8Q]	2.49
FSLKTFKSKSEVERAVKRMRHLST [R8S]	1.93
FSLKTFKNKSEVERAVKRMRHLST [R8N]	2.17
FSLKTFKMKSEVERAVKRMRHLST [R8M]	3.23
FSLKTFKGKSEVERAVKRMRHLST [R8G]	2.43
FSLKTFKIKSEVERAVKRMRHLST [R8I]	2.12
FSLKTFKYKSEVERAVKRMRHLST [R8Y]	2.29
FSLKTFKCKSEVERAVKRMRHLST [R8C]	2.27
FSLKTFKPKSEVERAVKRMRHLST [R8P]	2.7
FSLKTFKLKSEVERAVKRMRHLST [R8L]	2.48
FSLKTFKDKSEVERAVKRMRHLST [R8D]	2.85
FSLKTFKKKSEVERAVKRMRHLST [R8K]	2.33
FSLKTFKTKSEVERAVKRMRHLST [R8T]	2.47
ESLKTFKRKSEVERAVKRMRHLST [F1E]	2.72
WSLKTFKRKSEVERAVKRMRHLST [F1W]	1.69
MSLKTFKRKSEVERAVKRMRHLST [F1M]	2.24

Variant	protein stability index
GSLKTFKRKSEVERAVKRMRHLST [F1G]	2.86
ISLKTFKRKSEVERAVKRMRHLST [F1I]	2.39
VSLKTFKRKSEVERAVKRMRHLST [F1V]	2.56
NSLKTFKRKSEVERAVKRMRHLST [F1N]	3.33
RSLKTFKRKSEVERAVKRMRHLST [F1R]	2.37
ASLKTFKRKSEVERAVKRMRHLST [F1A]	3.04
SSLKTFKRKSEVERAVKRMRHLST [F1S]	2.87
TSLKTFKRKSEVERAVKRMRHLST [F1T]	3.02
KSLKTFKRKSEVERAVKRMRHLST [F1K]	3.46
DSLKTFKRKSEVERAVKRMRHLST [F1D]	2.77
YSLKTFKRKSEVERAVKRMRHLST [F1Y]	3.13
CSLKTFKRKSEVERAVKRMRHLST [F1C]	2.45
PSLKTFKRKSEVERAVKRMRHLST [F1P]	3
LSLKTFKRKSEVERAVKRMRHLST [F1L]	2.19
HSLKTFKRKSEVERAVKRMRHLST [F1H]	3.6
QSLKTFKRKSEVERAVKRMRHLST [F1Q]	3.62
FSLKTFKRKSIVERAVKRMRHLST [E11I]	1.96
FSLKTFKRKSNVERAVKRMRHLST [E11N]	2.82
FSLKTFKRKSHVERAVKRMRHLST [E11H]	2.29
FSLKTFKRKSQVERAVKRMRHLST [E11Q]	2.44
FSLKTFKRKSAVERAVKRMRHLST [E11A]	2.52
FSLKTFKRKSPVERAVKRMRHLST [E11P]	2.17
FSLKTFKRKSRVERAVKRMRHLST [E11R]	3.21
FSLKTFKRKSSVERAVKRMRHLST [E11S]	1.98

Variant	protein stability index
FSLKTFKRKSKVERAVKRMRHLST [E11K]	3.17
FSLKTFKRKSGVERAVKRMRHLST [E11G]	2.46
FSLKTFKRKSLVERAVKRMRHLST [E11L]	2.56
FSLKTFKRKSMVERAVKRMRHLST [E11M]	2.8
FSLKTFKRKSCVERAVKRMRHLST [E11C]	1.76
FSLKTFKRKSFVERAVKRMRHLST [E11F]	2.01
FSLKTFKRKSDVERAVKRMRHLST [E11D]	2.39
FSQKTFKRKSEVERAVKRMRHLST [L3Q]	2.23
FSCKTFKRKSEVERAVKRMRHLST [L3C]	1.93
FSMKTFKRKSEVERAVKRMRHLST [L3M]	2.25
FSTKTFKRKSEVERAVKRMRHLST [L3T]	2.3
FSDKTFKRKSEVERAVKRMRHLST [L3D]	2
FSWKTFKRKSEVERAVKRMRHLST [L3W]	3.27
FSSKTFKRKSEVERAVKRMRHLST [L3S]	2.45
FSIKTFKRKSEVERAVKRMRHLST [L3I]	2.56
FSYKTFKRKSEVERAVKRMRHLST [L3Y]	2.15
FSGKTFKRKSEVERAVKRMRHLST [L3G]	2.91
FSVKTFKRKSEVERAVKRMRHLST [L3V]	2.11
FSFKTFKRKSEVERAVKRMRHLST [L3F]	2.23
FSNKTFKRKSEVERAVKRMRHLST [L3N]	1.98
FSEKTFKRKSEVERAVKRMRHLST [L3E]	3.08
FSPKTFKRKSEVERAVKRMRHLST [L3P]	2.13
FSKKTFKRKSEVERAVKRMRHLST [L3K]	3.54
FSAKTFKRKSEVERAVKRMRHLST [L3A]	2.94

Variant	protein stability index
FSRKTFKRKSEVERAVKRMRHLST [L3R]	3
FSHKTFKRKSEVERAVKRMRHLST [L3H]	2.78
FSLKTFMRKSEVERAVKRMRHLST [K7M]	2.66
FSLKTFDRKSEVERAVKRMRHLST [K7D]	2.51
FSLKTFARKSEVERAVKRMRHLST [K7A]	1.78
FSLKTFGRKSEVERAVKRMRHLST [K7G]	2.46
FSLKTFVRKSEVERAVKRMRHLST [K7V]	2.91
FSLKTFFRKSEVERAVKRMRHLST [K7F]	1.83
FSLKTFIRKSEVERAVKRMRHLST [K7I]	1.31
FSLKTFCRKSEVERAVKRMRHLST [K7C]	1.63
FSLKTFTRKSEVERAVKRMRHLST [K7T]	2.31
FSLKTFYRKSEVERAVKRMRHLST [K7Y]	1.77
FSLKTFRRKSEVERAVKRMRHLST [K7R]	2.45
FSLKTFHRKSEVERAVKRMRHLST [K7H]	2.05
FSLKTFWRKSEVERAVKRMRHLST [K7W]	1.9
FSLKTFLRKSEVERAVKRMRHLST [K7L]	1.15
FSLKTFPRKSEVERAVKRMRHLST [K7P]	2.05
FSLKTFSRKSEVERAVKRMRHLST [K7S]	1.69
FSLKTFNRKSEVERAVKRMRHLST [K7N]	2.76
FSLKTFQRKSEVERAVKRMRHLST [K7Q]	1.97
